Laboratory results from PMC9973045, “The Drug-Induced Interface That Drives HIV-1 Integrase Hypermultimerization and Loss of Function” (mBio, 2023).

Target: the molecule itself
Assay: SEC-MALS; SEC-MALLS of isolated CTDs; Superdex-75 Increase 10/300; 0.5 M NaCl, 25 mM Tris-HCl pH 7.5, 3 mM NaN3, 0.5 mM TCEP; 25°C; loaded at 8, 4, 2, 1 or 0.5 mg/mL; dimer to monomers

B1: isolated HIV-1 IN CTD (wild type), IN residues 220 to 270 (domain or fragment)
chain: IQNFRVYYRDSRDPVWKGPAKLLWKGEGAVVIQDNSDIKVVPRRKAKIIRD
notes: HIV-1 integrase (IN) carboxyl-terminal domain, residues 220 to 270, lacking the C-terminal tail; numbers count on: the mature integrase (IN residues); A prior drug-free HIV-1 IN CTD structure is cited as PDB 6T6E; also called carboxyl-terminal domain; source: E. coli BL21-CodonPlus (DE3), purified (Ni-NTA, HiTrap SP, SEC); not shown: His6-Sumo, N-terminal, cleaved
stoichiometry N: 2
